Results: publication PMC9482650, “Quantitative fragmentomics allow affinity mapping of interactomes” (Nature Communications, 2022)
Residue numbers refer to the chain shown, from its start.

T1: LIN7B, Q9HAP6
T1 sequence (Q9HAP6 88-185, limits assumed, looked up): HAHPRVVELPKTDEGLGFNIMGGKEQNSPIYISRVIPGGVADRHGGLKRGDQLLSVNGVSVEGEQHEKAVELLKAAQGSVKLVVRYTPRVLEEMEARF

T2: ARHGAP21, Q5T5U3
T2 sequence (Q5T5U3 45-169, limits assumed, looked up): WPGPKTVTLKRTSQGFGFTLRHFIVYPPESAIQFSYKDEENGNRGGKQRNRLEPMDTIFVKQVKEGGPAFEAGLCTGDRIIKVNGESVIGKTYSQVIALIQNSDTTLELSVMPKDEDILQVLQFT

T3: MPP7, Q5T2T1
T3 sequence (Q5T2T1 134-230, limits assumed, looked up): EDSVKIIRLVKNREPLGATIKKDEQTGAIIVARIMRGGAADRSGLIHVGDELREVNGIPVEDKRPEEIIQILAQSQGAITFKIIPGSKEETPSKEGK

T4: PDZRN3_1, Q9UPQ7
T4 sequence (Q9UPQ7 244-349, limits assumed, looked up): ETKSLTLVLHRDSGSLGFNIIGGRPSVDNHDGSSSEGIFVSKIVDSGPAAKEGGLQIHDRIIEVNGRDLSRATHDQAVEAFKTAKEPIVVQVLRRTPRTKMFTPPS

T5: LIN7C, Q9NUP9
T5 sequence (Q9NUP9 88-185, limits assumed, looked up): T1 sequence (Q9HAP6 88-185, limits assumed, looked up) with A2S, D13E, V35I, V40I, Q65H, S79K, R89K, A96S

T6: HTRA3, P83110
T6 sequence (P83110 354-453, limits assumed, looked up): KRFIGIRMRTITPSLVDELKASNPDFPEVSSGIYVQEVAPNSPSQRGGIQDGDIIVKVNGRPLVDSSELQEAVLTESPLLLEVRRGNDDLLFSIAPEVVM

T7: GRIP1_3, Q9Y3R0
T7 sequence (Q9Y3R0 247-346, limits assumed, looked up): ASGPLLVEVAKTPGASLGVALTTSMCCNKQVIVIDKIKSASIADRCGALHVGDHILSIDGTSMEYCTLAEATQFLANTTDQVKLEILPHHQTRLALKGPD

T8: APBA1_1, Q02410
T8 sequence (Q02410 651-752, limits assumed, looked up): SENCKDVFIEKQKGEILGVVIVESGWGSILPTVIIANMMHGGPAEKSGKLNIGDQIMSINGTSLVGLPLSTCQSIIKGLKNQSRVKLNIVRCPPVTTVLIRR

T9: DFNB31_2, Q9P202
T9 sequence (Q9P202 274-371, limits assumed, looked up): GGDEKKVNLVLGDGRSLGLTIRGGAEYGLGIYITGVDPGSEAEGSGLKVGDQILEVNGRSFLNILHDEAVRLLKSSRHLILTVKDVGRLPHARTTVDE

T10: GRIP1_4, Q9Y3R0
T10 sequence (Q9Y3R0 467-571, limits assumed, looked up): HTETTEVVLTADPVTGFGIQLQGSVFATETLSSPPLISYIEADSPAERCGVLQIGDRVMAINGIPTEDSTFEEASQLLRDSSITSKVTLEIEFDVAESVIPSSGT

T11: DLG3_2, Q92796
T11 sequence (Q92796 221-321, limits assumed, looked up): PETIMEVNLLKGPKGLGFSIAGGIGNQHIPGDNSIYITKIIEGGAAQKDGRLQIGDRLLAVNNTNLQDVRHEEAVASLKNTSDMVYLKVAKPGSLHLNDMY


Target: T1, LIN7B, Q9HAP6
Assay: holdup assay
Design: key: below the threshold = too weak to quantify, mostly under pKd 3.1 to 4
Settings: plain residues with an end cap or a label only (N-terminal biotin on a linker: ado-ado)

pKd | Binder
3.74 | LSEFKAMDSI [CTNNA1, P35221]
3.64 | VDSTVKVWTC [TRAF7, Q6Q0C0]
3.81 | HLRARKSEWV [GJD4, Q96KN9]

Target: T2, ARHGAP21, Q5T5U3
Assay: holdup assay
Design: key: below the threshold = too weak to quantify, mostly under pKd 3.1 to 4
Settings: plain residues with an end cap or a label only (N-terminal biotin on a linker: ado-ado)

pKd | Binder
4.01 | LSEFKAMDSI [CTNNA1, P35221]
4.36 | VDSTVKVWTC [TRAF7, Q6Q0C0]
3.56 | HLRARKSEWV [GJD4, Q96KN9]

Target: GIPC2, Q8TF65
Sequence (Q8TF65 112-203): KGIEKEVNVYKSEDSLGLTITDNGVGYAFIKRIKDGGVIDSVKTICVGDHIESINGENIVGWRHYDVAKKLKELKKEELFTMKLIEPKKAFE
Assay: holdup assay
Design: key: below the threshold = too weak to quantify, mostly under pKd 3.1 to 4
Settings: plain residues with an end cap or a label only (N-terminal biotin on a linker: ado-ado)

pKd | Binder
below the threshold | LSEFKAMDSI [CTNNA1, P35221]
below the threshold | VDSTVKVWTC [TRAF7, Q6Q0C0]
below the threshold | HLRARKSEWV [GJD4, Q96KN9]

Target: T3, MPP7, Q5T2T1
Assay: holdup assay
Design: key: below the threshold = too weak to quantify, mostly under pKd 3.1 to 4
Settings: plain residues with an end cap or a label only (N-terminal biotin on a linker: ado-ado)

pKd | Binder
below the threshold | LSEFKAMDSI [CTNNA1, P35221]
3.84 | VDSTVKVWTC [TRAF7, Q6Q0C0]
below the threshold | HLRARKSEWV [GJD4, Q96KN9]

Target: T4, PDZRN3_1, Q9UPQ7
Assay: holdup assay
Design: key: below the threshold = too weak to quantify, mostly under pKd 3.1 to 4
Settings: plain residues with an end cap or a label only (N-terminal biotin on a linker: ado-ado)

pKd | Binder
below the threshold | LSEFKAMDSI [CTNNA1, P35221]
below the threshold | VDSTVKVWTC [TRAF7, Q6Q0C0]
below the threshold | HLRARKSEWV [GJD4, Q96KN9]

Target: LNX1_1, Q8TBB1
Sequence (Q8TBB1 261-371): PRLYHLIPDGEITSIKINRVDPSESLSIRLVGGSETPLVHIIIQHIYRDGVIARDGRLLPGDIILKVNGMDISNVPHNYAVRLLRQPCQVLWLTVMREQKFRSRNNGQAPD
Assay: holdup assay
Design: key: below the threshold = too weak to quantify, mostly under pKd 3.1 to 4
Settings: plain residues with an end cap or a label only (N-terminal biotin on a linker: ado-ado)

pKd | Binder
below the threshold | LSEFKAMDSI [CTNNA1, P35221]
below the threshold | VDSTVKVWTC [TRAF7, Q6Q0C0]
below the threshold | HLRARKSEWV [GJD4, Q96KN9]

Target: T5, LIN7C, Q9NUP9
Assay: holdup assay
Design: key: below the threshold = too weak to quantify, mostly under pKd 3.1 to 4
Settings: plain residues with an end cap or a label only (N-terminal biotin on a linker: ado-ado)

pKd | Binder
below the threshold | LSEFKAMDSI [CTNNA1, P35221]
below the threshold | VDSTVKVWTC [TRAF7, Q6Q0C0]
below the threshold | HLRARKSEWV [GJD4, Q96KN9]

Target: DLG4_1, P78352
Sequence (P78352 62-152): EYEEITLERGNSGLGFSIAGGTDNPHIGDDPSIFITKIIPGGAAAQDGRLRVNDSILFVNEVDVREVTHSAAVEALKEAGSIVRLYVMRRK
Assay: holdup assay
Design: key: below the threshold = too weak to quantify, mostly under pKd 3.1 to 4
Settings: plain residues with an end cap or a label only (N-terminal biotin on a linker: ado-ado)

pKd | Binder
below the threshold | LSEFKAMDSI [CTNNA1, P35221]
below the threshold | VDSTVKVWTC [TRAF7, Q6Q0C0]
below the threshold | HLRARKSEWV [GJD4, Q96KN9]

Target: GRIP2_5, Q9C0E4
Sequence (Q9C0E4 544-642): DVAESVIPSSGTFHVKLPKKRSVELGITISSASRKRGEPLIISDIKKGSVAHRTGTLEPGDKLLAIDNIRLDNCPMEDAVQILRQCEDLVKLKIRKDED
Assay: holdup assay
Design: key: below the threshold = too weak to quantify, mostly under pKd 3.1 to 4
Settings: plain residues with an end cap or a label only (N-terminal biotin on a linker: ado-ado)

pKd | Binder
below the threshold | LSEFKAMDSI [CTNNA1, P35221]
below the threshold | VDSTVKVWTC [TRAF7, Q6Q0C0]
below the threshold | HLRARKSEWV [GJD4, Q96KN9]

Target: MAGI2_4, Q86UL8
Sequence (Q86UL8 772-865): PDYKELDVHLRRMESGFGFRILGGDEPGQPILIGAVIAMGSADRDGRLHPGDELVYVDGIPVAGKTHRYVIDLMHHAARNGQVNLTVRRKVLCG
Assay: holdup assay
Design: key: below the threshold = too weak to quantify, mostly under pKd 3.1 to 4
Settings: plain residues with an end cap or a label only (N-terminal biotin on a linker: ado-ado)

pKd | Binder
below the threshold | LSEFKAMDSI [CTNNA1, P35221]
below the threshold | VDSTVKVWTC [TRAF7, Q6Q0C0]
3.71 | HLRARKSEWV [GJD4, Q96KN9]

Target: GRID2IP_1, A4D2P6
Sequence (A4D2P6 1-87): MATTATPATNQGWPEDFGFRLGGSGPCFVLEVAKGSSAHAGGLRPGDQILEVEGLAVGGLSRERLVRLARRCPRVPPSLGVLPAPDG
Assay: holdup assay
Design: key: below the threshold = too weak to quantify, mostly under pKd 3.1 to 4
Settings: plain residues with an end cap or a label only (N-terminal biotin on a linker: ado-ado)

pKd | Binder
below the threshold | LSEFKAMDSI [CTNNA1, P35221]
below the threshold | VDSTVKVWTC [TRAF7, Q6Q0C0]
below the threshold | HLRARKSEWV [GJD4, Q96KN9]

Target: Inadl_2, Q8NI35
Sequence (Q8NI35 238-335): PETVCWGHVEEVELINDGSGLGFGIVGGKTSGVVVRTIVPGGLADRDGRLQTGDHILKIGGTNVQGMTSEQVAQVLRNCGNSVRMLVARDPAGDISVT
Assay: holdup assay
Design: key: below the threshold = too weak to quantify, mostly under pKd 3.1 to 4
Settings: plain residues with an end cap or a label only (N-terminal biotin on a linker: ado-ado)

pKd | Binder
below the threshold | LSEFKAMDSI [CTNNA1, P35221]
3.65 | VDSTVKVWTC [TRAF7, Q6Q0C0]
below the threshold | HLRARKSEWV [GJD4, Q96KN9]

Target: CASK, O14936
Sequence (O14936 487-570): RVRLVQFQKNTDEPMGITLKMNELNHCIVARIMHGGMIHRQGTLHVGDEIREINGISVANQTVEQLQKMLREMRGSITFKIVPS
Assay: holdup assay
Design: key: below the threshold = too weak to quantify, mostly under pKd 3.1 to 4
Settings: plain residues with an end cap or a label only (N-terminal biotin on a linker: ado-ado)

pKd | Binder
below the threshold | LSEFKAMDSI [CTNNA1, P35221]
3.75 | VDSTVKVWTC [TRAF7, Q6Q0C0]
below the threshold | HLRARKSEWV [GJD4, Q96KN9]

Target: GORASP1, Q9BQQ3
Sequence (Q9BQQ3 1-208): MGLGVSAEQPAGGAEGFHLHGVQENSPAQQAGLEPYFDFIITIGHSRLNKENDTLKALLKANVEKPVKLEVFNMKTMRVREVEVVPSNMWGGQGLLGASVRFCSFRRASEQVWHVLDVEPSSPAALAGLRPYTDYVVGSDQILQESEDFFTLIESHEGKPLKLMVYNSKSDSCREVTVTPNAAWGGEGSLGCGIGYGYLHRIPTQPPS
Assay: holdup assay
Design: key: below the threshold = too weak to quantify, mostly under pKd 3.1 to 4
Settings: plain residues with an end cap or a label only (N-terminal biotin on a linker: ado-ado)

pKd | Binder
below the threshold | LSEFKAMDSI [CTNNA1, P35221]
4.15 | VDSTVKVWTC [TRAF7, Q6Q0C0]
5 | HLRARKSEWV [GJD4, Q96KN9]

Target: GORASP2, Q9H8Y8
Assay: holdup assay
Design: key: below the threshold = too weak to quantify, mostly under pKd 3.1 to 4
Settings: plain residues with an end cap or a label only (N-terminal biotin on a linker: ado-ado)

pKd | Binder
below the threshold | LSEFKAMDSI [CTNNA1, P35221]
4.88 | VDSTVKVWTC [TRAF7, Q6Q0C0]
5.57 | HLRARKSEWV [GJD4, Q96KN9]

Target: T6, HTRA3, P83110
Assay: holdup assay
Design: key: below the threshold = too weak to quantify, mostly under pKd 3.1 to 4
Settings: plain residues with an end cap or a label only (N-terminal biotin on a linker: ado-ado)

pKd | Binder
below the threshold | LSEFKAMDSI [CTNNA1, P35221]
5.13 | VDSTVKVWTC [TRAF7, Q6Q0C0]
5.81 | HLRARKSEWV [GJD4, Q96KN9]

Target: MAGI2_3, Q86UL8
Sequence (Q86UL8 600-682): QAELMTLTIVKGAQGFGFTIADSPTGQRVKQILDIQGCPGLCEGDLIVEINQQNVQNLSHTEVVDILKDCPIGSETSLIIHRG
Assay: holdup assay
Design: key: below the threshold = too weak to quantify, mostly under pKd 3.1 to 4
Settings: plain residues with an end cap or a label only (N-terminal biotin on a linker: ado-ado)

pKd | Binder
below the threshold | LSEFKAMDSI [CTNNA1, P35221]
below the threshold | VDSTVKVWTC [TRAF7, Q6Q0C0]
below the threshold | HLRARKSEWV [GJD4, Q96KN9]

Target: FRMPD3, Q5JV73
Sequence (Q5JV73 12-100): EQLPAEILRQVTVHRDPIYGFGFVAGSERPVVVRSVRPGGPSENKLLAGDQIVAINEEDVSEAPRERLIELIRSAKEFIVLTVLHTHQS
Assay: holdup assay
Design: key: below the threshold = too weak to quantify, mostly under pKd 3.1 to 4
Settings: plain residues with an end cap or a label only (N-terminal biotin on a linker: ado-ado)

pKd | Binder
below the threshold | LSEFKAMDSI [CTNNA1, P35221]
3.64 | VDSTVKVWTC [TRAF7, Q6Q0C0]
below the threshold | HLRARKSEWV [GJD4, Q96KN9]

Target: FRMPD4, Q14CM0
Sequence (Q14CM0 67-160): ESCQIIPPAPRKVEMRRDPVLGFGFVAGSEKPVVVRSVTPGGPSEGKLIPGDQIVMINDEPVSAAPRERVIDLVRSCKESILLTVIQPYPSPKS
Assay: holdup assay
Design: key: below the threshold = too weak to quantify, mostly under pKd 3.1 to 4
Settings: plain residues with an end cap or a label only (N-terminal biotin on a linker: ado-ado)

pKd | Binder
below the threshold | LSEFKAMDSI [CTNNA1, P35221]
4.02 | VDSTVKVWTC [TRAF7, Q6Q0C0]
below the threshold | HLRARKSEWV [GJD4, Q96KN9]

Target: T7, GRIP1_3, Q9Y3R0
Assay: holdup assay
Design: key: below the threshold = too weak to quantify, mostly under pKd 3.1 to 4
Settings: plain residues with an end cap or a label only (N-terminal biotin on a linker: ado-ado)

pKd | Binder
below the threshold | LSEFKAMDSI [CTNNA1, P35221]
below the threshold | VDSTVKVWTC [TRAF7, Q6Q0C0]
below the threshold | HLRARKSEWV [GJD4, Q96KN9]

Target: T8, APBA1_1, Q02410
Assay: holdup assay
Design: key: below the threshold = too weak to quantify, mostly under pKd 3.1 to 4
Settings: plain residues with an end cap or a label only (N-terminal biotin on a linker: ado-ado)

pKd | Binder
below the threshold | LSEFKAMDSI [CTNNA1, P35221]
below the threshold | VDSTVKVWTC [TRAF7, Q6Q0C0]
below the threshold | HLRARKSEWV [GJD4, Q96KN9]

Target: T9, DFNB31_2, Q9P202
Assay: holdup assay
Design: key: below the threshold = too weak to quantify, mostly under pKd 3.1 to 4
Settings: plain residues with an end cap or a label only (N-terminal biotin on a linker: ado-ado)

pKd | Binder
below the threshold | LSEFKAMDSI [CTNNA1, P35221]
below the threshold | VDSTVKVWTC [TRAF7, Q6Q0C0]
below the threshold | HLRARKSEWV [GJD4, Q96KN9]

Target: T10, GRIP1_4, Q9Y3R0
Assay: holdup assay
Design: key: below the threshold = too weak to quantify, mostly under pKd 3.1 to 4
Settings: plain residues with an end cap or a label only (N-terminal biotin on a linker: ado-ado)

pKd | Binder
below the threshold | LSEFKAMDSI [CTNNA1, P35221]
below the threshold | VDSTVKVWTC [TRAF7, Q6Q0C0]
below the threshold | HLRARKSEWV [GJD4, Q96KN9]

Target: T11, DLG3_2, Q92796
Assay: holdup assay
Design: key: below the threshold = too weak to quantify, mostly under pKd 3.1 to 4
Settings: plain residues with an end cap or a label only (N-terminal biotin on a linker: ado-ado)

pKd | Binder
3.56 | LSEFKAMDSI [CTNNA1, P35221]
4.18 | VDSTVKVWTC [TRAF7, Q6Q0C0]
4.33 | HLRARKSEWV [GJD4, Q96KN9]

Target: NHERF4_2, Q86UT5
Sequence (Q86UT5 220-308): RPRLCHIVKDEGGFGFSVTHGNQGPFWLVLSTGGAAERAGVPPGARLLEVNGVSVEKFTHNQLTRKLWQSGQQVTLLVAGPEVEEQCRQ
Assay: holdup assay
Design: key: below the threshold = too weak to quantify, mostly under pKd 3.1 to 4
Settings: plain residues with an end cap or a label only (N-terminal biotin on a linker: ado-ado)

pKd | Binder
below the threshold | LSEFKAMDSI [CTNNA1, P35221]
below the threshold | VDSTVKVWTC [TRAF7, Q6Q0C0]
below the threshold | HLRARKSEWV [GJD4, Q96KN9]
